Measured values: patent US20070110818A1, “Milk fractions and milk preparations for treating and/or preventing cox-2 mediated diseases” (priority 2003, published 2007)

Target: T1, COX-2 (Homo sapiens, UniProt P35354)
T1 construct: treated with 100 nM (nmol/l) phorbol 12-myristate 13-acetate for 6 h at 37° C. to induce COX-2 isoenzyme; endogenous in cells; host or cells: HUV-EC-C (ATCC CRL1730), PMA-induced
T1 sequence (P35354 18-604): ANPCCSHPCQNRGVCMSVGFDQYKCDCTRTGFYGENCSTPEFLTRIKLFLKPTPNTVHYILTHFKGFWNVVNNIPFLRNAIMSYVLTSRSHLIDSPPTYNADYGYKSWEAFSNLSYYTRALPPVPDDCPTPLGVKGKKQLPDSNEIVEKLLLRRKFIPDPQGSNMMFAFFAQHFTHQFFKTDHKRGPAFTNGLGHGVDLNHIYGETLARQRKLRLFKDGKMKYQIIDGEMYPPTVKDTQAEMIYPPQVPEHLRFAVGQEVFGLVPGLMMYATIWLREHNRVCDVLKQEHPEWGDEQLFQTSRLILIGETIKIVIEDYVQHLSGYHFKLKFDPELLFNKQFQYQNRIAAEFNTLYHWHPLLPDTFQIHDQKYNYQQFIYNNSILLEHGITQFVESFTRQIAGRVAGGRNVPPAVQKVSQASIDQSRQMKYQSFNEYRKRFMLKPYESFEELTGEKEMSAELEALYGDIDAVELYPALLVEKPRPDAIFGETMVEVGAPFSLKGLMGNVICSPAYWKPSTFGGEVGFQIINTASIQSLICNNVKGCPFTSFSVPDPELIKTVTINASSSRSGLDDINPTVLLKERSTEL
Assay: COX-2 screening in PMA-induced HUV-EC-C cells (Prostaglandine-E2 production by RIA)
Format: cell-based
Experimental: HUV-EC-C cells (a permanent endothelial cell line derived from the vein of a normal human umbilical cord; ATCC CRL1730; M. Miralpeix, M. Camacho et al., Brit. J. Pharmacol. 121 (1997), 171-180), were seeded onto 96-well plates (RPMI 1640+10% FCS) and treated with 100 nM (nmol/l) phorbol 12-myristate 13-acetate for 6 h at 37° C. to induce COX-2 isoenzyme. 50 μM (μmol/l) arachidonic acid were then added and the cells were incubated in the presence of test compounds or mixtures for 30 min at 37° C. Prostaglandine-E2 production was measured by radioimmuno assay (RIA) and the radioactivity determined with a scintillation counter (Topcount, Packard) using a liquid scintillation cocktail (Packard).
The results obtained are expressed as a percent of control values and as a percent inhibition of control values obtained in the presence of the test compounds. The control values correspond to the COX-2 activity of HUV-EC-C cells after stimulation with Phorbol Myristate Acetate (PMA) during 6 hours at 37° C. (can be done also with Tumor Necrosis Factor type alpha: TNFα) in absence of test compound.
The concentration causing a half-maximal inhibition of control values (IC50 value) and Hill coefficients (nH) were determined for the reference compounds (cycloheximide) by nonlinear regression analysis of their inhibition curves. These parameters were obtained by Hill equation curve fitting. […]

B1: Lactoferrin (protein, UniProt P02788 20-710, looked up)
Lactotransferrin: GRRRSVQWCAVSQPEATKCFQWQRNMRKVRGPPVSCIKRDSPIQCIQAIAENRADAVTLDGGFIYEAGLAPYKLRPVAAEVYGTERQPRTHYYAVAVVKKGGSFQLNELQGLKSCHTGLRRTAGWNVPIGTLRPFLNWTGPPEPIEAAVARFFSASCVPGADKGQFPNLCRLCAGTGENKCAFSSQEPYFSYSGAFKCLRDGAGDVAFIRESTVFEDLSDEAERDEYELLCPDNTRKPVDKFKDCHLARVPSHAVVARSVNGKEDAIWNLLRQAQEKFGKDKSPKFQLFGSPSGQKDLLFKDSAIGFSRVPPRIDSGLYLGSGYFTAIQNLRKSEEEVAARRARVVWCAVGEQELRKCNQWSGLSEGSVTCSSASTTEDCIALVLKGEADAMSLDGGYVYTAGKCGLVPVLAENYKSQQSSDPDPNCVDRPVEGYLAVAVVRRSDTSLTWNSVKGKKSCHTAVDRTAGWNIPMGLLFNQTGSCKFDEYFSQSCAPGSDPRSNLCALCIGDEQGENKCVPNSNERYYGYTGAFRCLAENAGDVAFVKDVTVLQNTDGNNNEAWAKDLKLADFALLCLDGKRKPVTEARSCHLAMAPNHAVVSRMDKVERLKQVLLHQQAKFGRNGSDCPDKFCLFQSETKNLLFNDNTECLARLHGKTTYEKYLGPQYVAGITNLKKCSTSPLLEACEFLRK
With B1 the “cyclooxygenase-2 inhibiting activity (in words)” value was “not to have any cyclooxygense-2 inhibiting activity”.
